Results on five molecules are retold here after PMC8528422 (Science Advances, 2021).

Numbering of substitutions follows the chain as printed. Names and notes keep the numbering of the source.

B1: FleN, full length (residues 1 to 280), wild type (natural protein, Pseudomonas aeruginosa, UniProt G3XD64 1-280, looked up)
chain: MKQMGSMHPVQVIAVTGGKGGVGKTNVSVNLALALADLGRRVMLLDADLGLANVDVLLGLTPKRTLADVIEGRCELRDVLLLGPGGVRIVPAASGTQSMVHLSPMQHAGLIQAFSDISDNLDVLVVDTAAGIGDSVVSFVRAAQEVLLVVCDEPTSITDAYALIKLLNRDHGMTRFRVLANMAHSPQEGRNLFAKLTKVTDRFLDVALQYVGVIPYDESVRKAVQKQRAVYEAFPRSKASLAFKAVAQKVDSWPLPANPRGHLEFFVERLVQHPATGSAV
B2: FleN D48A (natural protein, Pseudomonas aeruginosa, UniProt G3XD64 1-280, looked up)
chain: B1 chain with D48A
B3: FleQ AAA+ ATPase (central) domain, residues 142 to 395 (domain or fragment)
chain: not shown
modifications: biotin (EZ-Link NHS-PEG4-Biotin) for the BLI assay
B4: FleN L263W (natural protein, Pseudomonas aeruginosa, UniProt G3XD64 1-280, looked up)
chain: B1 chain with L263W
B5: FleN truncated by 25 amino acids at the C terminus, residues 1 to 255 (domain or fragment, Pseudomonas aeruginosa, UniProt G3XD64 1-255, looked up)
chain: MKQMGSMHPVQVIAVTGGKGGVGKTNVSVNLALALADLGRRVMLLDADLGLANVDVLLGLTPKRTLADVIEGRCELRDVLLLGPGGVRIVPAASGTQSMVHLSPMQHAGLIQAFSDISDNLDVLVVDTAAGIGDSVVSFVRAAQEVLLVVCDEPTSITDAYALIKLLNRDHGMTRFRVLANMAHSPQEGRNLFAKLTKVTDRFLDVALQYVGVIPYDESVRKAVQKQRAVYEAFPRSKASLAFKAVAQKVDSWPL

Series [1] has as its target FleQ, full length (FleQFL) (Pseudomonas aeruginosa, UniProt G3XCV0 1-490, biotin (EZ-Link NHS-PEG4-Biotin) for the BLI assay). The series is described as follows: BLI. In general terms: Biolayer interferometry detects binding as a change in optical thickness at a sensor tip.
The series “crystal structure” concerns the molecule itself. Description: crystal structure.
Series [2] addresses B1. Description: BLI.
The series “cross-linking” deals with the molecule itself. The series is described as follows: cross-linking.

Sequence of FleQ, full length (FleQFL) (G3XCV0 whole entry): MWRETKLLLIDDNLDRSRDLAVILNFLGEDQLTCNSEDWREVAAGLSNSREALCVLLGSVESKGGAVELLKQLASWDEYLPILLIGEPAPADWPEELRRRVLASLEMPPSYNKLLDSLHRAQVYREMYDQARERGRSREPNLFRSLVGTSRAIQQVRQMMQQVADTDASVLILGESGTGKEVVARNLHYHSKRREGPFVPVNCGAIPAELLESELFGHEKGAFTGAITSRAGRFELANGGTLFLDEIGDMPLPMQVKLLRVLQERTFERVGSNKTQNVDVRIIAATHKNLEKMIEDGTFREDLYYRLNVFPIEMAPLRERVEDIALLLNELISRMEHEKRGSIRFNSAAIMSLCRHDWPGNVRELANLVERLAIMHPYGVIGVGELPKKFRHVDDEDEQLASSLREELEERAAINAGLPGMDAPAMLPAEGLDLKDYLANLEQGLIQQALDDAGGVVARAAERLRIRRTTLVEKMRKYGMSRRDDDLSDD

By Kd is commonly meant the equilibrium constant for the complex coming apart. A low value points to a tighter complex. As a reminder, the stoichiometry N is a count of units in the complex or per binding partner. For B1, in series [1], the Kd was 340 nM. Besides, the “stoichiometry N” value in “crystal structure” worked out at 2.

B2: the binding result in series [1] is recorded as “binds”.

Turning to B3, the Kd in series [2] is 260 nM.

For B4, the “fold change of KD against WT FleN” value in series [1] was determined as 100 fold. For the same molecule, in “cross-linking”, the “stoichiometry N” value turned out to be 2.

Take B5: the “stoichiometry N” value in the series “cross-linking” came to 2.
